± gives the standard error. Fewer inactive variants are shown than the library holds.
B1: glmS ribozyme (parent)
chain: AUAAAAGCGCCAGAACUACAGAAAUGUAGUUGACGAGGAGGAGGUUUAUCGAAUUUUCGGCGGAUGCCUCCAAA

Variants of: B1
Assay: self-cleavage kobs at 2500 uM GlcN6P; higher = faster cleavage; RNA array
Conditions: with glucosamine-6-phosphate
Outline: (§1)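 The measurements used barcoded ribozyme variants on sequenced MiSeq chips, transcribed in situ by E. coli RNA polymerase and tracked at 37 °C with a hybridised Cy3 probe. Glucosamine-6-phosphate, 40 μM to 10 mM in HEPES/KCl/Mg(OAc)2 buffer, was flowed in while tiles were imaged over ~14 h. Baseline-normalised signals, also normalised to non-cleaving reference variants, gave per-tile medians that were fit to one- or two-exponential decays for kobs. kcat and KM resulted from weighted Michaelis–Menten fits across concentrations.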

self-cleavage kobs at 2500 uM GlcN6P, 0.000248 ± 8.4e-05 s⁻¹:
AUAAAAGCGCCAGAACUACAGAAAUGUAGUUGACGAGUAGGAGGUUUAUCGAAUUUUCGGCGGAUGGUUCCAAA [G38U C67G C68U]

self-cleavage kobs at 2500 uM GlcN6P, 8.64e-05 ± 3.1e-05 s⁻¹:
AUAAAAGCGCCAGAACUACAGAAAUGUAGUUGACGAAGAGGAGGUUUAUCGUAUUUACGGCGGAUGCCUCCAAA [G37A A52U U57A]

self-cleavage kobs at 2500 uM GlcN6P, 0.00214 ± 0.00067 s⁻¹:
AUAAAAGCGCCAGAACUACAGAAAUGUAGUUGACGAGGAAGAGGUUUAUCGAAUUUUCGGCGGAUGCCUCCCAA [G40A A72C]

self-cleavage kobs at 2500 uM GlcN6P, 4.67e-05 ± 1.4e-05 s⁻¹:
AUAAAAGCGCCAGAACUACAGAAAUGUAGUUGACGAGGUGUAGGUAUAUCGAAUUUUCGGCGGAUGCCUCCAAA [A39U G41U U46A]

self-cleavage kobs at 2500 uM GlcN6P, 0.000168 ± 5.5e-05 s⁻¹:
AUAAAAGCGCCAGAACUACAGAAAUGUAGUUGACGAGGUGGAGGUUUAUCGAAUUUUCGGCGGACGGCUCCAAA [A39U U65C C67G]

self-cleavage kobs at 2500 uM GlcN6P, < 1e-05 s⁻¹:
AUAAAAGCGCCAGAACUACAGAAAUGUAGUUGACGAUGAGGUGGUUUAUCGAAGUUACGGCGGAUGACUCCAAA [G37U A42U U54G U57A C67A]
AUAAAAGCGCCAGAACUACAGAAAUGUAGUUGACGAAGAGGAGGUUUAUCGAAUUUUCGUCGGAUGCCUCCAAA [G37A G60U]
AUAAAAGCGCCAGAACUACAGAAAUGUAGUUGACGAUGAGGAGUUUUAUCGAAUUUUAGGCGGAUGCCUCAAAA [G37U G44U C58A C71A]
AUAAAAGCGCCAGAACUACAGAAAUGUAGUUGACGAGCAGGAGGUUUACCGAAUUUACGGCGGAGGCCUGCAAA [G38C U49C U57A U65G C70G]
AUAAAAGCGCCAGAACUACAGAAAUGUAGUUGACGAUGAGGAGUUUUAUCGAAAUUUCGGCGGAUGCCUCCAAA [G37U G44U U54A]
AUAAAAGCGCCAGAACUACAGAAAUGUAGUUGACGAAACGGAGGUUUAUCGAAUUUUCGGCGGAUGCCUCCAAA [G37A G38A A39C]
AUAAAAGCGCCAGAACUACAGAAAUGUAGUUGACGAGAUGGACGUUUUUCGAAUCUUCGGCGGAUGCCUACAAA [G38A A39U G43C A48U U55C C70A]
AUAAAAGCGCCAGAACUACAGAAAUGUAGUUGACGACGAGGAGGUUUAUCGAAUUUUCGCCGGAUGACUCCAAA [G37C G60C C67A]
AUAAAAGCGCCAGAACUACAGAAAUGUAGUUGACGAGAAGGAGGUUUAAAGAAUUUUCGGCGGAUGCCUCCAAA [G38A U49A C50A]
AUAAAAGCGCCAGAACUACAGAAAUGUAGUUGACGUGGAUCAGGUUUAUCGAAUUUUCGGCGGAUGCCUCCAAA [A36U G40U G41C]
AUAAAAGCGCCAGAACUACAGAAAUGUAGUUGACGAGCCGGAGGAUUAUCGAAUUUUCGGCGGAUGCCUCCAAA [G38C A39C U45A]
AUAAAAGCGCCAGAACUACAGAAAUGUAGUUGACGUGGAGGAGGUUUAUCGAAUUUUCCGCGUAUGCCUCCAAA [A36U G59C G63U]
AUAAAAGCGCCAGAACUACAGAAAUGUAGUUGACGACGAGGAGGUUUAUCGGAUUGUCGGCGGAUGCCUCCAAA [G37C A52G U56G]
AUAAAAGCGCCAGAACUACAGAAAUGUAGUUGACGAGGUGGAGGUUUGUCGAAUUUACGUCGGAUGCCUGCAAA [A39U A48G U57A G60U C70G]
AUAAAAGCGCCAGAACUACAGAAAUGUAGUUGACGGGGAGGAGGUUUAUCGAAUUUUUUGCGGGUGCCUCCAAA [A36G C58U G59U A64G]
AUAAAAGCGCCAGAACUACAGAAAUGUAGUUGACGAUGAGGAGGUUUAUCGAAUUUUCGUCGGAUGCCUCCAAA [G37U G60U]
AUAAAAGCGCCAGAACUACAGAAAUGUAGUUGACGAUGGGGAGGUUUAUCGAAUUUUCGGCGGAUGCGUCCAAA [G37U A39G C68G]
AUAAAAGCGCCAGAACUACAGAAAUGUAGUUGACGUGGAGGAGCUGUAUCGAAUUUUCGGCGGAUGCCUCCAAA [A36U G44C U46G]
AUAAAAGCGCCAGAACUACAGAAAUGUAGUUGACGGGGAGGAGUUUUGUCGAAUUUUCGGCGGAUGUCUCAAAA [A36G G44U A48G C67U C71A]
AUAAAAGCGCCAGAACUACAGAAAUGUAGUUGACGAUGAGGCGGUUUAUCGAAUGUUCGGCGGAUGCCUCCAAA [G37U A42C U55G]
AUAAAAGCGCCAGAACUACAGAAAUGUAGUUGACGAUGAGGAGGUUUAUCGAUUUUACGGCGGAUGCCUCCAAA [G37U A53U U57A]
AUAAAAGCGCCAGAACUACAGAAAUGUAGUUGACGAGAAGUACGUUUAUCGAUUUUUCAGCGGCUGCCUCCAAA [G38A G41U G43C A53U G59A A64C]
AUAAAAGCGCCAGAACUACAGAAAUGUAGUUGACGUGGAGGAGGUUUAUCGAAUUUGCGGCGGGUGUCUCCAAA [A36U U57G A64G C67U]
AUAAAAGCGCCAGAACUACAGAAAUGUAGUUGACGACUAGGCGGCGUAUCGAAUUUUCGGCGGAUGCCUCCAAA [G37C G38U A42C U45C U46G]
AUAAAAGCGCCAGAACUACAGAAAUGUAGUUGACGAGGUGGAGGUUUAUCGCAUUUUCGGCGGAUGCCUCAAAA [A39U A52C C71A]
AUAAAAGCGCCAGAACUACAGAAAUGUAGUUGACGUGGAGGAGGUUUAUCUAAUUUUCGGCGUAUGCCUCCAAA [A36U G51U G63U]

self-cleavage kobs at 2500 uM GlcN6P, 0.000126 ± 3.1e-05 s⁻¹:
AUAAAAGCGCCAGAACUACAGAAAUGUAGUUGACGAGGCAGAGGUUUAUCGAAUUUUCGGCGGAUGCCUCCAAA [A39C G40A]

Variants of: B1
Assay: self-cleavage kobs at 10000 uM GlcN6P; higher = faster cleavage; RNA array
Conditions: with glucosamine-6-phosphate
Outline: as §1

self-cleavage kobs at 10000 uM GlcN6P, 0.00025 ± 6e-05 s⁻¹:
AUAAAAGCGCCAGAACUACAGAAAUGUAGUUGACGAGGUGGAGGUUUAUCGAAUUUUCGGCGGACGGCUCCAAA [A39U U65C C67G]

self-cleavage kobs at 10000 uM GlcN6P, 0.000135 ± 2.6e-05 s⁻¹:
AUAAAAGCGCCAGAACUACAGAAAUGUAGUUGACGAGGUGUAGGUAUAUCGAAUUUUCGGCGGAUGCCUCCAAA [A39U G41U U46A]

self-cleavage kobs at 10000 uM GlcN6P, 0.000104 ± 1.9e-05 s⁻¹:
AUAAAAGCGCCAGAACUACAGAAAUGUAGUUGACGAAGAGGAGGUUUAUCGUAUUUACGGCGGAUGCCUCCAAA [G37A A52U U57A]

self-cleavage kobs at 10000 uM GlcN6P, < 1e-05 s⁻¹:
AUAAAAGCGCCAGAACUACAGAAAUGUAGUUGACGAAGAGGAGGUUUAUCGAAUUUUCGUCGGAUGCCUCCAAA [G37A G60U]
AUAAAAGCGCCAGAACUACAGAAAUGUAGUUGACGUGGAGGAGGUUUAUCGAAUUUGCGGCGGGUGUCUCCAAA [A36U U57G A64G C67U]
